Numbered stars: 1 amine (or outer) side, 2 acyl side, 3 side chain; on linkers, the order of the positions; unused ones are H or OH. Square brackets hold non-standard residues; d marks the D form. Ends that are not written are not given here. Dhp = Dehydrophenylalanine, O=C(/C(=C/c1ccccc1)N[*:1])[*:2]; Phg = N[C@H](C(=O)O)c1ccccc1; dPse = not defined here; Abu = CC[C@H](N)C(=O)O; Pse = Phenylserine
Experiments:
Cyclin A = Cyclin A (Homo sapiens, UniProt P20248); assay: Cyclin A binding assay, immobilised biotinyl-Ahx-[…]NH2; settings: for Cyclin A Binding Maximum Inhibition: at 100 μM, no IC50 given
Method: This was added to each well (100 μL). The plate was incubated for 1 h at room temperature with constant shaking. The plate was washed once quickly with TBS/BSA buffer (200 μL), followed by three more washes with TBS/BSA buffer (200 μL) for 5 min each. Serial dilutions of test peptides were prepared in a new plate (50 μL in each well). Cyclin A was diluted to 5 μg/50 μL with TBS/BSA buffer and this was then added to each well (50 μL). The solutions were mixed thoroughly with a pipette (5-6 times), before being incubated for 30 min at room temperature. This reaction mixture was then transferred to the biotinylated peptide: streptavidin-coated plate and incubated for 1 h at room temperature with constant shaking. The plate was washed once quickly with TBS/BSA buffer (200 μL), followed by three more washes with TBS/BSA buffer (200 μL) for 5 min each. The cyclin A antibody (Santa Cruz polyclonal) solution was diluted 1:200 with TBS/BSA buffer and this was then added to each well of the plate (100 μL. The plate was incubated for 1 h at room temperature with constant shaking. The plate was washed once quickly with TBS/BSA buffer (200 μl), followed by three more washes with TBS/BSA buffer (200 μL) for 5 min each. The anti-rabbit secondary antibody (goat anti-rabbit IgG peroxidase conjugate) was diluted 1:10,000 with TBS/BSA and this was then added to each well of the plate (100 μL). The plate was incubated for 1 h at room temperature with constant shaking. The plate was washed once quickly with TBS/BSA buffer (200 μL), followed by three more washes with TBS/BSA buffer (200 μL) for 5 min each. To each well was added the TMB-ELISA reagent (Pierce 1-Step™ Turbo TMB-ELISA; 100 μL) and the plate incubated for 1 min with constant shaking. The reaction was then quenched by the addition of 2 M aqueous H2SO4 (100 μL, each well). The UV absorbance of the each solution was measured spectrophotometrically at 450 nm. IC50 values were calculated from dose-response curves.

CDK2/cyclin A = CDK2/cyclin A (Homo sapiens, UniProt P20248); assay: CDK2/cyclin A kinase assay, substrate pRb(773-928); type: biochemical; settings: for Relative activity Kinase Inhibition: pRb substrate, [ATP] = 100 μM
Source text: Reactions were stopped on ice, followed by filtration through p81 filterplates (Whatman Polyfiltronics, Kent, UK).

CDK2/Cyclin E = molecular target: T1, CDK2/Cyclin E (Homo sapiens, UniProt P24864); assay: CDK2/Cyclin E kinase assay, phosphorylation of GST-Rb; type: biochemical; settings: for Kinase Inhibition Cyclin E/CDK2 % Inhibition / Kinase Inhibition Cyclin E/CDK2 IC30: GST-pRb substrate, [ATP] = 100 μM
T1 construct: 6xHis; made in house; host or cells: Sf9 insect cells (baculovirus co-expression)
Method: (§1) The phosphorylation reaction mixture (total volume 40 μl) consisted of 50 mM HEPES pH 7.4, 20 mM MgCl2, 5 mM EGTA, 2 mM DTT, 20 mM β-glycerophosphate, 2 mM NaF, 1 mM Na3VO4, Protease Inhibitors Cocktail (Sigma, see above), BSA 0.5 mg/ml, 1 μg purified enzyme complex, 10 μl of GST-Rb-Sepharose beads, 100 μM ATP, 0.2 μCi ^32P-ATP. The reaction was carried out for 30 min at 30° C. at constant shaking. At the end of this period 100 μl of 50 mM HEPES, pH 7.4 and 1 mM ATP were added to each well and the total volume was transferred onto GFC filtered plate. The plate was washed 5 times with 200 μl of 50 mM HEPES, pH 7.4 and 1 mM ATP. To each well were added 50 μl scintillant liquid and the radioactivity of the samples was measured on Scintilation counter (Topcount, HP). The IC50 values of different peptides were calculated using GraFit software.

CDK4/Cyclin D1 = molecular target: T2, CDK4/Cyclin D1 (Homo sapiens, UniProt P24385); assay: CDK4/Cyclin D1 kinase assay, phosphorylation of GST-Rb; type: biochemical
T2 construct: made in house; host or cells: CDK4: Sf9 insect cells (baculovirus)
Method: as §1
Peptides were synthesized as described above. Cyclin D1 was expressed in E coli BL21(DE3) using PET expression vector and purified from the inclusion bodies. After refolding Cyclin D1 was cross-linked on SulfoLink agarose support (PIERCE). CDK4-6×His was expressed in Sf9 insect cells infected with the appropriate baculovirus construct and purified by metal-affinity chromatography (Quiagen). […] CDK4/Cyclin D1 phosphorilation of Rb was determined by incorporation of radio-labeled phosphate in GST-Rb in 96-well format kinase assay. […] The reaction was carried out for 30 min at 30 C at constant shaking. The GST-Rb-Sepharose beads were washed with 50 mM HEPES and 1 mM ATP and the radioactivity was measured on Scintillation counter (Topcount, HP)

[1] = relative to SEQ ID No. 36 = 1, competitive cyclin A binding, immobilised biotinyl-Ahx-His-Ala-Lys-Arg-Arg-Leu-Ile-Phe-NH2
[2] = relative to H-His-Ala-Lys-Arg-Arg-Leu-Ile-Phe-NH2 (SEQ ID No. 36) = 1, CDK2/cyclin A kinase assay
[3] = Ala153 substitutions, relative to H-His-Ala-Lys-Arg-Arg-Leu-Ile-Phe-NH2 (=1)
[4] = Phe159 substitutions, relative to H-His-Ala-Lys-Arg-Arg-Leu-Ile-Phe-NH2 (=1)
[5] = His152 substitutions, relative to H-His-Ala-Lys-Arg-Arg-Leu-Ile-Phe-NH2 (=1)
[6] = Arg156 substitutions, relative to H-His-Ala-Lys-Arg-Arg-Leu-Ile-Phe-NH2 (=1)
[7] = GST-pRb substrate, [ATP] = 100 μM

Cyclin A, sequence (P20248 whole entry): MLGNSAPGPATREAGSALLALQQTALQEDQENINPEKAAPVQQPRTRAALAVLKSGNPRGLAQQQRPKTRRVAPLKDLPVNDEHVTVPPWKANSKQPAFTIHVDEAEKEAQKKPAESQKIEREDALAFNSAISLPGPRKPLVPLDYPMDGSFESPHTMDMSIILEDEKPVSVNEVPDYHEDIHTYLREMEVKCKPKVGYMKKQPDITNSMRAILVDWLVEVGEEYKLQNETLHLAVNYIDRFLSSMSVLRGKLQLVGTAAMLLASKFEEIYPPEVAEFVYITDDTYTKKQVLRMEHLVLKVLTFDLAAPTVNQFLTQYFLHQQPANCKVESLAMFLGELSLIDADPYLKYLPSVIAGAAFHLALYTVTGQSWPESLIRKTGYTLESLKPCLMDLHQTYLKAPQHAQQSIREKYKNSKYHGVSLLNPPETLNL
T2 sequence (P24385 whole entry): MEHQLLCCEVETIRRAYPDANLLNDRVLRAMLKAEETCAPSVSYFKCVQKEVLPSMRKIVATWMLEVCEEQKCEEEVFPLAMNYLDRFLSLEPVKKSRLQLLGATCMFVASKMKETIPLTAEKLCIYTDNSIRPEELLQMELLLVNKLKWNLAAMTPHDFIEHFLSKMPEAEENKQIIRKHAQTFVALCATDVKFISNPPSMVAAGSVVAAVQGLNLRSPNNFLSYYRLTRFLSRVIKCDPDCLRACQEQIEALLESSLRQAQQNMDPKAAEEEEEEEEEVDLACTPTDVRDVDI
T2 sequence (P11802 whole entry partner): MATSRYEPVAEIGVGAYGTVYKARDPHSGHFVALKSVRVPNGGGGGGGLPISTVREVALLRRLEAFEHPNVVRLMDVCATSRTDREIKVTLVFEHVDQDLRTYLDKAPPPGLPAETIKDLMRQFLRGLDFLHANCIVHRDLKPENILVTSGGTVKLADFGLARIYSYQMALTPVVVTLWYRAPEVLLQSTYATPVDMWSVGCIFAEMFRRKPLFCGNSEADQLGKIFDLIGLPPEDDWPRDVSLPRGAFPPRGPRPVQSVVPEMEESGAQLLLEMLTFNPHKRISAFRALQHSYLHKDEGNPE

Q: What does the source list for “113 (H-HSKRRLI[dPse]-OH; reading uncertain) [compound 113]”?
A: Relative activity Cyclin A Binding (Cyclin A; [1]): <0.1; Relative activity Kinase Inhibition (CDK2/cyclin A; [2]): <0.1

Q: For 110 (H-HAKRRLI[Pse]-OH) [compound 110], which “Relative activity Cyclin A Binding” value (Cyclin A; [1]) is on record?
A: 0.2

Q: What about the “Relative activity Kinase Inhibition” value (CDK2/cyclin A; [2]) of the same compound?
A: <0.1

Q: What does the source list for “H-His-Phg-Lys-Arg-Arg-Leu-Ile Phe-NH2 (H-H[Phg]KRRLIF-NH2; not fully specified; printed as H-His-Phg-Lys-Arg-Arg-Leu-Ile Phe-NH2)”?
A: Relative activity Cyclin A Binding (Cyclin A; [3]): <0.1; Relative activity Kinase Inhibition (CDK2/cyclin A; [3]): <0.1

Q: 24 (FYHSKRRLIFS) [compound 24] was tested. Which “Cyclin A Binding Maximum Inhibition” value (Cyclin A) did it give?
A: 50(at 100 (μM) %

Q: Which “Relative activity Cyclin A Binding” value (Cyclin A; [1]) does the source give for “118 (H-HAKRRLI[Dhp]-OH; not fully specified) [compound 118]” here?
A: 0.2

Q: What about the “Relative activity Kinase Inhibition” value (CDK2/cyclin A; [2]) of the same compound?
A: 3.3

Q: “H-His-Abu-Lys-Arg-Arg-Leu-Ile Phe-NH2 (H-H[Abu]KRRLIF-NH2; SMILES CC[C@H](NC(=O)[C@@H](N)Cc1c[nH]cn1)C(=O)N[C@@H](CCCCN)C(=O)N[C@@H](CCCNC(=N)N)C(=O)N[C@@H](CCCNC(=N)N)C(=O)N[C@@H](CC(C)C)C(=O)N[C@H](C(=O)N[C@@H](Cc1ccccc1)C(N)=O)[C@@H](C)CC)” was tested. Which “Relative activity Cyclin A Binding” value (Cyclin A; [3]) did it give?
A: 1.3

Q: And the “Relative activity Kinase Inhibition” value (CDK2/cyclin A; [3])?
A: 5

Q: With HAKRRLIL-NH2 as the compound, how does the “Relative activity Cyclin A Binding” value (Cyclin A; [4]) read?
A: <0.1

Q: What about the “Relative activity Kinase Inhibition” value (CDK2/cyclin A; [4]) of the same compound?
A: 0.3

Q: For “H-Dab-Ala-Lys-Arg-Arg-Leu-Ile Phe-NH2 (XAKRRLIF; N-terminal Dab, C-terminal amide)”, which “Relative activity Cyclin A Binding” value (Cyclin A; [5]) is on record?
A: 0.4

Q: What about the “Relative activity Kinase Inhibition” value (CDK2/cyclin A; [5]) of the same compound?
A: 5

Q: How did the “Relative activity Cyclin A Binding” value (Cyclin A; [6]) turn out when “H-His-Ala-Lys-Arg-Ser-Leu-Ile Phe-NH2 (H-HAKRSLIF-NH2)” was run?
A: 0.2

Q: What about the “Relative activity Kinase Inhibition” value (CDK2/cyclin A; [6]) of the same compound?
A: 0.7

Q: Which results are given for “H-Hse-Ala-Lys-Arg-Arg-Leu-Ile Phe-NH2 (XAKRRLIF; N-terminal Hse, C-terminal amide)”?
A: Relative activity Cyclin A Binding (Cyclin A; [5]): 2; Relative activity Kinase Inhibition (CDK2/cyclin A; [5]): 2

Q: Which “Relative activity Cyclin A Binding” value (Cyclin A; [5]) does the source give for “H-Phe-Ala-Lys-Arg-Arg-Leu.Ile Phe-NH2 (H-FAKRRLIF-NH2)” here?
A: 1

Q: What about the “Relative activity Kinase Inhibition” value (CDK2/cyclin A; [5]) of the same compound?
A: 3

Q: Which results are given for “H-His-Ala-Lys-Arg-Ala-Leu-Ile Phe-NH2 (H-HAKRALIF-NH2)”?
A: Relative activity Cyclin A Binding (Cyclin A; [6]): <0.1; Relative activity Kinase Inhibition (CDK2/cyclin A; [6]): <0.1

Q: How did the “Cyclin A Binding Maximum Inhibition” value (Cyclin A) turn out when 30 (SKRRLIF) [compound 30] was run?
A: 20(at 100 (μM) %

Q: `CC[C@H](C)[C@H](NC(=O)[C@H](CC(C)C)NC(=O)[C@H](CCCNC(=N)N)NC(=O)[C@H](CCCNC(=N)N)NC(=O)[C@H](CCCCN)NC(=O)[C@H](CO)NC(=O)[C@@H](N)Cc1c[nH]cn1)C(=O)N[C@@H](Cc1ccccc1)C(N)=O` was tested. Which IC50 (CDK2/Cyclin E; phosphorylation of pRb, read-out: Kinase Inhibition Cyclin E/CDK2 IC50) did it give?
A: 3.4 µM

Q: What about the inhibition at 100 µM (CDK4/Cyclin D1; [7]) of the same compound?
A: 72%

Q: And the IC50 (CDK4/Cyclin D1; phosphorylation of pRb, read-out: Kinase Inhibition Cyclin D1/CDK4 IC50)?
A: 21 µM

Q: What about the “Kinase Inhibition Cyclin A/CDK2 % Inhibition” value (CDK2/cyclin A; phosphorylation of pRb) of the same compound?
A: 80%

Q: What about the IC50 (CDK2/cyclin A; phosphorylation of pRb, read-out: Kinase Inhibition Cyclin A/CDK2 IC50) of the same compound?
A: 3.4 µM

Q: Which “Kinase Inhibition Cyclin E/CDK2 % Inhibition” value (CDK2/Cyclin E) does the source give for FYHSKRRLI (H-FYHSKRRLI-NH2) here?
A: 45%

Q: And the “Kinase Inhibition Cyclin D1/CDK4 % Inhibition” value (CDK4/Cyclin D1; [7])?
A: 20%

Q: FYHSKRRLIF was tested. Which “Kinase Inhibition Cyclin E/CDK2 % Inhibition” value (CDK2/Cyclin E) did it give?
A: 80%

Q: What about the “Kinase Inhibition Cyclin D1/CDK4 % Inhibition” value (CDK4/Cyclin D1; [7]) of the same compound?
A: 70%

Q: And the “Kinase Inhibition Cyclin D1/CDK4 IC30” value (CDK4/Cyclin D1; [7])?
A: 19 ± 3 µM

Q: Which results are given for FYHSKRRLIFS?
A: Kinase Inhibition Cyclin E/CDK2 % Inhibition (CDK2/Cyclin E): 80%; Kinase Inhibition Cyclin E/CDK2 IC30 (CDK2/Cyclin E): 6.8 ± 1.0 µM; Kinase Inhibition Cyclin D1/CDK4 % Inhibition (CDK4/Cyclin D1; [7]): 70%; Kinase Inhibition Cyclin D1/CDK4 IC30 (CDK4/Cyclin D1; [7]): 22 ± 5 µM

Q: How did the “Kinase Inhibition Cyclin E/CDK2 % Inhibition” value (CDK2/Cyclin E) turn out when HSKRRLI (H-HSKRRLI-NH2) was run?
A: 35%

Q: And the “Kinase Inhibition Cyclin D1/CDK4 % Inhibition” value (CDK4/Cyclin D1; [7])?
A: 10%

Q: With SKRRLIF as the compound, how does the “Kinase Inhibition Cyclin E/CDK2 % Inhibition” value (CDK2/Cyclin E) read?
A: 80%

Q: And the “Kinase Inhibition Cyclin E/CDK2 IC30” value (CDK2/Cyclin E)?
A: 7.7 ± 0.5 µM

Q: What about the “Kinase Inhibition Cyclin D1/CDK4 % Inhibition” value (CDK4/Cyclin D1; [7]) of the same compound?
A: 72%

Q: What about the “Kinase Inhibition Cyclin D1/CDK4 IC30” value (CDK4/Cyclin D1; [7]) of the same compound?
A: 54 µM

Q: Which results are given for KRRLIF?
A: Kinase Inhibition Cyclin E/CDK2 % Inhibition (CDK2/Cyclin E): 80%; Kinase Inhibition Cyclin D1/CDK4 % Inhibition (CDK4/Cyclin D1; [7]): 72%; Kinase Inhibition Cyclin D1/CDK4 IC30 (CDK4/Cyclin D1; [7]): >200 µM

From patent US20050153894A1, “p21 peptides” (Cyclacel Limited, priority 1999, published 2005)
